Laboratory results: patent US20220380455A1 (Alector, published 2022)
Values joined by “and” are separate entries in the source; they are usually repeats but may differ in a detail not shown here. Identical values can stand only once.

Experiments:
MS4A6A ECL1 peptide [1] = target: T1, MS4A6A ECL1 peptide (human); experiment: array SPR (Carterra MX-96), antibody captured, peptide injected
T1 construct: the description elsewhere gives ECL1 as 68-84; Human and cyno ECL1 are said to be identical
T1 peptide: SASFSPNFTQVTSTLLNS
Experimental: (§1) Binding kinetic characterization of the purified antibodies to MS4A6A ECL1 and ECL2 peptides was performed by Carterra (South San Francisco, Calif.) using a proprietary array Surface Plasmon Resonance (SPR) instrument (MX-96) as follows. Antibodies were printed onto a CMD5OOD chip (Xantec #SPMX CMD500D lot #SC CMD500D0117.a Exp. 31.12.18) using the Continuous Flow Microspotter (CFM). First, the chip was activated with 100 mM MES pH 5.5, 100 μL EDC (133 mM final), 100 μL of S-NHS (33.3 mM final), for 7 minutes. A lawn of anti-mouse IgG-Fc (Jackson ImmunoResearch CAT #115-005-071 lot#130410) was injected for 15 minutes to establish a surface density of 10000-12000 RU, after which the chip surface was deactivated with 1 M ethanolamine at pH 8.5 for 10 minutes. Anti-MS4A6A antibodies in question, in the form of hybridoma supernatants diluted 2:1 with HBS-EP+buffer (Teknova CAT #H8022), were then printed as duplicates with a 20 minute and a 5 minutes print from the same sample solution. Control antibodies were diluted to 20 μ/ml for printing.
(§2) To perform kinetic analysis, the peptides in question were prepared in HBS-EP+buffer with lmg/ml BSA at final assay concentrations of 2000 nM, 400 nM, 80 nM, 16 nmM, and 3.2 nM. These were then injected on the chip for five minutes, followed by a seven-minute dissociation period at 8 uL per second in a non-regenerative kinetic series. Duplicate measurements for each anti-MS4A6A antibody were taken to ensure reproducibility.
(§3) Kₐ (association rate constant; Kₒₙ), Kd (dissociation rate constant; Koff) and KD (equilibrium constant) to MS4A6A ECL-2 peptides were calculated for each of the 23 anti-MS4A6A antibodies tested, the results of which are shown below in Table 5 (clones that bound too weakly to determine these values are denoted as N/A in Table 5).

cynomolgus (cyno) MS4A6A [2] = target: T2, cynomolgus (cyno) MS4A6A (cynomolgus, UniProt Q9H2W1 1-246 (human entry)); experiment: flow cytometry, hybridoma supernatant, HEK293 transfected with cyno MS4A6A over parental HEK293; Screen 1
T2 construct: Full-length protein expressed in transfected HEK293, U937 or K562 cells (flow cytometry)
T2 chain: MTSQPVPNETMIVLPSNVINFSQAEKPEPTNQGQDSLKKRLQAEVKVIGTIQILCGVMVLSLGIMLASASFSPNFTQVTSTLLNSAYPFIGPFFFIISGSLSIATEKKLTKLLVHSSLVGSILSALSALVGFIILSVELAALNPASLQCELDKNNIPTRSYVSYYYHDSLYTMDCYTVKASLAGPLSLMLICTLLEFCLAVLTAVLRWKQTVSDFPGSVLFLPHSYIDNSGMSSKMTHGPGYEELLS
Experimental: (§4) Positive clones were expanded and then rescreened for specificity against HEK293 cells overexpressing cyno MS4A6A and parental HEK293 cells. Briefly, previously prepared, cryopreserved transiently-transfected cells were labeled with LIVE/DEAD Fixable Aqua Dead Cell Stain Kit (ThermoFisher Scientific L34957) on ice for 30 minutes. After a wash with PBS, 2×10⁵ cells were aliquoted per well in 96-well round bottom plates and incubated with 50 μl of culture supernatant on ice for 30 mins. […] Following this secondary incubation, the cells were again washed twice with ice-cold FACS buffer and resuspended in a final volume of 200 μl of FACS buffer. Analysis was performed on a FACS Canto system (BD Biosciences), with sort gates drawn to exclude dead (Aqua-positive) cells. […] The screen was repeated twice, and the numbers reported here represent the ratio of mean fluorescence level in transfected cells over parental cells.

cynomolgus (cyno) MS4A6A [3] = target: T2, cynomolgus (cyno) MS4A6A; experiment: flow cytometry, hybridoma supernatant, HEK293 transfected with cyno MS4A6A over parental HEK293; Screen 2
Experimental: as §4

MS4A6A ECL2 peptide [4] = target: T3, MS4A6A ECL2 peptide (human); experiment: array SPR (Carterra MX-96), antibody captured on anti-mouse IgG-Fc, ECL2 peptide injected
T3 construct: also called MS4A6A ECL-2 peptides
T3 peptide: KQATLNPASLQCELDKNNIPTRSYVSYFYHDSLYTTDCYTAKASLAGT
Experimental: as §1, §2, §3

MS4A6A ECL2 peptide [5] = target: T3, MS4A6A ECL2 peptide; experiment: array SPR (Carterra MX-96), antibody captured, peptide injected; both duplicates N/A
Experimental: as §1, §2, §3

BSA-MS4A6A-ECL2 peptide = target: T4, BSA-MS4A6A-ECL2 peptide (human, BSA-conjugated); experiment: peptide ELISA, hybridoma supernatant
T4 construct: Synthetic peptide derived from ECL2, conjugated to BSA, coated on the ELISA plate; also called MS4A6A-ECL2 BSA conjugated peptide; BSA-MS4A6A-ELC2 peptide
T4 peptide: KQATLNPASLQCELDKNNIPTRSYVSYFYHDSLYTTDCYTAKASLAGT
Experimental: (§5) Anti-MS4A6A hybridoma supernatants were tested for binding to MS4A6A peptides derived from ECL1 (amino acid residues 68-85 of human MS4A6A of SEQ ID NO:1) and ECL2 (amino acid residues 138-185 of human MS4A6A of SEQ ID NO:1) sequences, using an enzyme-linked immunosorbent assay (ELISA). Briefly, 96-well polystyrene plates were coated with 1-10 μg/mL of synthetic free or BSA-conjugated peptides in coating buffer (0.05M carbonate buffer, pH9.6, Millipore Sigma C3041) overnight at 4° C. Coated plates were then blocked with ELISA diluent (PBS+0.5% BSA+0.05% Tween20) for 1-hour, washed 3×300 μL in PBST (PBS+0.05% Tween20, Thermo 28352), and then the antibodies were added at various dilutions (100-1000×) in ELISA diluent. After 30 mins incubation (room temperature, with shaking), the plates were washed 3×300 μl in PBST. A secondary anti-mouse HRP antibody (Jackson Immunoresearch CAT #115-035-003) was added at a 1:1000 dilution in ELISA diluent (50 μL/well) and incubated for 30 minutes at room temperature with shaking. After a final set of washes (3×300 μl in PBST), 50 μL of TMB substrate (BioFx TMBW-1000-01) was added and the reaction was then quenched after 5-10 mins with 50 μL of stop solution (BioFx BSTP-1000-01). The quenched reaction wells were detected for absorbance at […] with a BioTek Synergy Microplate Reader using GENS 2.04 software.

MS4A6A ECL1 peptide [6] = target: T1, MS4A6A ECL1 peptide; experiment: peptide ELISA, hybridoma supernatant
Experimental: as §5

B1: 6A-3 (antibody, V domains shown)
VH: EVQLQQSGPELVKPGASVKMSCKASGYTFTDYFMKWVKQSHGKSLEWIGDINPKNGDTFYNQKFKGKATLTVDKSSSTAYMQLNSLTSEDSAVYYCARPGYFDVWGAGTTVTVSS
VL: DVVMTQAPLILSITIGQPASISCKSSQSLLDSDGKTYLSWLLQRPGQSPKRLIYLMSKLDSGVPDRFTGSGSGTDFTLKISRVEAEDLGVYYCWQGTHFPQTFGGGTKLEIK
notes: Mouse hybridoma antibody, tested as hybridoma supernatant (mouse IgG, detected or captured via anti-mouse IgG Fc); also called anti-MS4A6A antibody 6A-3
binding result (MS4A6A ECL1 peptide [1]): no binding (tested: 2000 nM)
ratio of APC MFI on MS4A6A+/HEK parental cells (cynomolgus (cyno) MS4A6A [2]): 24.1 ratio
ratio of APC MFI on MS4A6A+/HEK parental cells (cynomolgus (cyno) MS4A6A [3]): 63.7 ratio
Kd (MS4A6A ECL2 peptide [4]): 120 nM and 94 nM
koff (MS4A6A ECL2 peptide [4]): 0.0006 s⁻¹ and 0.00065 s⁻¹
kon (MS4A6A ECL2 peptide [4]): 4800 M⁻¹ s⁻¹ and 6800 M⁻¹ s⁻¹

B2: 6A-20 (antibody, V domains shown)
VH: EVQLQQSGPELVKPGASVKMSCKASGYTFTDYFMKWVKQSHGKSLEWIGDINPKNGDTFYNQKFKGKATLTVDKSSSTAYMQLNSLTSEDSAVYYCARPGYFDVWGAGTTVTVSS
VL: DIVMTQAAPSVPVTPGESVSISCRSSKSLLHSDGNTYLYWFLQRPGQSPQLLIYRMSNLAPGVPDRFSGSGSGTAFTLRISRVEAEDVGVYYCMQHLEFPFIFGAGTKLELK
notes: Mouse hybridoma antibody (SJL mouse), tested as hybridoma supernatant (mouse IgG, detected or captured via anti-mouse IgG Fc); also called anti-MS4A6A antibody 6A-20
binding result (MS4A6A ECL2 peptide [5]): no binding (tested: 2000 nM)
binding result (BSA-MS4A6A-ECL2 peptide): no binding
binding result (MS4A6A ECL1 peptide [6]): no binding

B3: 6A-10 (antibody, V domains shown)
VH: QIQLVQSGPELKKPGETVKISCKASGYTFTNYGMNWVKQAPGKGLKWMGWINTYTGEPTYADDFKGRFAFSLETSASTAYLQINNLKNEDMATYFCARAYGNSAWFAYWGQGTLVTVSA
VL: QIVLSQSPAILSASPGEKVTMTCRASSSVSYMHWYQQKPGSSPKPWIYATSNLASGVPARFSGSGSGTSYSLTISRVEAEDAATYYCQQWSSNPWTFGGGTKLEIK
notes: Mouse hybridoma antibody, tested as hybridoma supernatant (mouse IgG, detected or captured via anti-mouse IgG Fc); also called anti-MS4A6A antibody 6A-10
binding result (MS4A6A ECL1 peptide [6]): no binding
ratio of APC MFI on MS4A6A+/HEK parental cells (cynomolgus (cyno) MS4A6A [2]): 18 ratio
ratio of APC MFI on MS4A6A+/HEK parental cells (cynomolgus (cyno) MS4A6A [3]): 95.2 ratio
Kd (MS4A6A ECL2 peptide [4]): 190 nM
koff (MS4A6A ECL2 peptide [4]): 0.0013 s⁻¹
kon (MS4A6A ECL2 peptide [4]): 6600 M⁻¹ s⁻¹

B4: 6A-4 (antibody, V domains shown)
VH: EVQLQQSGPELVKPGASVKISCKASGYSFTGYYMHWVKQSPEDSLEWIGAINPSTGGSTYSQKFKDKATLTVDKSSSTAYMQLKSLTSEESAVYYCTRFDGYGYWGQGTLVTVSA
VL: DIVMTQAAFSNPVTLGTSASISCRSSKSLLHSNGITYLYWYLQKPGQSLQLLIYQMSNLASGVPDRFSGSGSGTDFTLRISRVEAEDVGVYYCAQNLELPWTFGGGTKLEIK
notes: Mouse hybridoma antibody, tested as hybridoma supernatant (mouse IgG, detected or captured via anti-mouse IgG Fc); also called anti-MS4A6A antibody 6A-4
binding result (MS4A6A ECL2 peptide [5]): no binding (tested: 2000 nM)
binding result (BSA-MS4A6A-ECL2 peptide): no binding
binding result (MS4A6A ECL1 peptide [6]): no binding
ratio of APC MFI on MS4A6A+/HEK parental cells (cynomolgus (cyno) MS4A6A [2]): 5.4 ratio
ratio of APC MFI on MS4A6A+/HEK parental cells (cynomolgus (cyno) MS4A6A [3]): 16.2 ratio

B5: 6A-17 (antibody, V domains shown)
VH: QVQLKESGPGLVAPSQSLSITCTISGFSLTSYGVHWVRQPPGKGLEWLVVIWSDGSTTYNSALKSRLSISKDNSKSQVFLKMNGLQTDDTAMYYCARHRGNYPYYTMDYWGQGTSVTVSS
VL: DIQMTQTTSSLSASLGDRVTISCRASQDISNYLNWYQQKPDGTVKLLIYYTSVLHSGVPSRFSGSGSGTDYSLTISNLEQEDIATYFCQQGNTLPWTFGGGTKLEIK
notes: Mouse hybridoma antibody, tested as hybridoma supernatant (mouse IgG, detected or captured via anti-mouse IgG Fc); also called anti-MS4A6A antibody 6A-17
binding result (MS4A6A ECL2 peptide [5]): no binding (tested: 2000 nM)
binding result (BSA-MS4A6A-ECL2 peptide): no binding
binding result (MS4A6A ECL1 peptide [6]): no binding
ratio of APC MFI on MS4A6A+/HEK parental cells (cynomolgus (cyno) MS4A6A [2]): 19.3 ratio
ratio of APC MFI on MS4A6A+/HEK parental cells (cynomolgus (cyno) MS4A6A [3]): 178 ratio
